Source: patent US20240158480A1 (ACADEMY OF MILITARY MEDICAL SCIENCE PLA, published 2024)

T1: NiV-MY G (Nipah virus, Malaysia strain (NiV-MY), UniProt Q9IH62 71-602)
T1 construct: also called G protein of NiV-MY; Malaysia Nipah virus glycoprotein G
T1 sequence: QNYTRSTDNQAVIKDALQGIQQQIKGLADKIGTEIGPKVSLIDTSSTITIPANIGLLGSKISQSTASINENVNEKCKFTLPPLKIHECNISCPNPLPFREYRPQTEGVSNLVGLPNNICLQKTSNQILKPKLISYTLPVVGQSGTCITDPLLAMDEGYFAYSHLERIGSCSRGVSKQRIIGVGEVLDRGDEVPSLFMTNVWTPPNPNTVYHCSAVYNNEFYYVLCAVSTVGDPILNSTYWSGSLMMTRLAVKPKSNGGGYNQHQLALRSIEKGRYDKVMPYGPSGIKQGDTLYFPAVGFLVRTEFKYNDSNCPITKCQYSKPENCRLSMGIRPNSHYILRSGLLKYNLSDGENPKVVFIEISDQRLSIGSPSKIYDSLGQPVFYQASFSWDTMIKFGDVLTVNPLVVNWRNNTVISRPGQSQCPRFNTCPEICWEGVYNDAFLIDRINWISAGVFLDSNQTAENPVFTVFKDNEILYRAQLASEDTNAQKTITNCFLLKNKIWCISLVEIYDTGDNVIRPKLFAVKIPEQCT

B1: 2B6 (antibody, V domains shown)
VH: QVQLVQSGAEVKKPGASVKLSCKASGYTFTSFYINWVRQAPGQVLEWMGWINPSNGDTGYAQKFQGRVTMSRDTSTSTAYMELSSLRSEDTAVYYCTRETVGSGTFDCWGQGVLVTVSS
VL: DIVMTQTPLSLSVTLGEPASISCRSSQSLVYSAGKTYLDWYLQKPGQSPQLLIYLVSKRASGVPDKFSGSGSGTDFTLKISRVEAEDVGVYYCMQALRSPLTFGGGTKVELK
notes: also called antibody 2B6; monoclonal antibody 2B6; copies: 2 + 2
B2: 1F9 (antibody, V domains shown)
VH: QVQLQESGPGLVKPSETLSLSCAVSGGSFSDYWWGWIRQSPGKGLEWIGSIYGSSGRTAYSPSLKSRATISRDTSKNQLFLRLTSVTAADTGVYYCTNERFYGDSNRFDVWGPGVLVTVSS
VL: QPVLTQPTSLSASPGASARLTCTLSSGISVGNYRIFWYQQKPGSPPRYLLNYHTDSDKHQGSGVPSRFSGSKDASANAGILLISGLQSEDEADYYCMIWHNNVDVFGGGTKLTVLR
B3: 1A9 (antibody, V domains shown)
VH: VQLQESGPGLVKPSETLSLTCAVSGDSISTGYDWTWIRQPPGKGLEWIGYIGGSSGNTNYNPSLKSRVTISKDTSKNQFSLKLSSVTAADTAVYYCARDGTRVYYYGLDSWGQGVVVTVSS
VL: ETVVTQEPSLSVSPGGTVTLTCGLSSGSVSTSNYPSWFQQTPGQAPRMLIYSTNIRPSGVPNRFSGSILGNKAALTITGAQADDESDYYCFFSMVSGTSVFGGGTRLTVLR
B4: 1D11 (antibody, V domains shown)
VH: EVQLVESGGGLVQPGGSLRLSCAASGFTFSSYDMSWVRQAPGKGLEWVSSISSVTSYISYADSVKGRFTISRDNAKNSLSLQMNSLKTEDTAVYYCTTENWNFDFWGQGVLVTVSS
VL: DVVMTQSPLSLATTPGQPASISCRSSQSLVHSNGNTYLSWYQQKPGQPPRLLIYEVSNRDSGVPDRFSGSGAGTDFTLKISRVEAEDVGVYYCGQGTHWPPFTFGPGTKLDIK
notes: also called antibody 1D11; monoclonal antibody 1D11; copies: 2 + 2

Columns and labels:
NiV-MY G [1] = target: T1, NiV-MY G; test: ELISA, G protein coated at 1 µg/mL, antibody titrated 1:3 from 20 µg/mL
[2] = target: NiV-BD G (Nipah virus, Bangladesh strain (NiV-BD)); test: cell-based or functional assay
[3] = target: NiV-BD G (Nipah virus, Bangladesh strain (NiV-BD)); test: ELISA, G protein coated at 1 µg/mL, antibody titrated 1:3 from 20 µg/mL
NiV-MY G [4] = target: T1, NiV-MY G; test: cell-based or functional assay

Binder	EC50 (NiV-MY G [1]) [µg/mL]	neutralization of HIV-NiV-BD pseudovirus (luciferase, 293T cells) [2] [%]	EC50 [3] [µg/mL]	half inhibiting concentration (IC50), NiV-MY pseudovirus neutralization (NiV-MY G [4]) [µg/mL]
B1	0.00956	100	0.0054	0.0283
B2	–	100	0.015	–
B3	–	–	0.0183	–
B4	0.0202	100	0.00991	0.0579
